What was measured:
[1] = tested on: RNase; experiment: Ct value depending on concentration of RNase inhibitor in first heating step (Experimental Example 2); assay type: biochemical; details: first heating 37° C. 5 minutes
[2] = tested on: RNase; experiment: Ct value depending on temperature of first heating step (Experimental Example 3); assay type: biochemical; details: RNase inhibitor 30 U/rxn, incubation 5 minutes

Ct value as the concentration of the RNase inhibitor increased ([1]; 7.5 U/rxn to 45 U/rxn): gradually decreased
Ct value at first heating temperature of 25° C. to 37° C. [2]: constant
Ct value at first heating temperature of 45° C. or higher [2]: increased
B1: RNase inhibitor: RNase inhibitor (Nanohelix RNase Inhibitor) derived from murine lung (protein, UniProt Q91VI7 1-456, looked up)
Ribonuclease inhibitor: MSLDIQCEQLSDARWTELLPLIQQYEVVRLDDCGLTEVRCKDISSAVQANPALTELSLRTNELGDGGVGLVLQGLQNPTCKIQKLSLQNCGLTEAGCGILPGMLRSLSTLRELHLNDNPMGDAGLKLLCEGLQDPQCRLEKLQLEYCNLTATSCEPLASVLRVKADFKELVLSNNDLHEPGVRILCQGLKDSACQLESLKLENCGITAANCKDLCDVVASKASLQELDLSSNKLGNAGIAALCPGLLLPSCKLRTLWLWECDITAEGCKDLCRVLRAKQSLKELSLASNELKDEGARLLCESLLEPGCQLESLWIKTCSLTAASCPYFCSVLTKSRSLLELQMSSNPLGDEGVQELCKALSQPDTVLRELWLGDCDVTNSGCSSLANVLLANRSLRELDLSNNCMGGPGVLQLLESLKQPSCTLQQLVLYDIYWTNEVEEQLRALEEERPSLRIIS
Ct value at 52.5 U/rxn ([1]; 52.5 U/rxn): lower than that at a concentration of 7.5 U/rxn

Reference: patent US20240344110A1, “COMPOSITION FOR CELL LYSIS AND NUCLEIC ACID EXTRACTION, NUCLEIC ACID EXTRACTION METHOD USING SAME, AND MOLECULAR DIAGNOSTIC METHOD USING SAME” (INVITROS CO., LTD., priority 2021, published 2024)
